Patent publication CN117264055A (SHANGHAI HRAIN BIOTECHNOLOGY CO LTD, dated 2023)

T1: 重组人CD318-avi-his抗原蛋白 (human, UniProt Q9H5V8 30-667)
T1 construct: Coated on ELISA plates at 100 ng per well; also called 重组人CD318蛋白; CDCP1
T1 sequence: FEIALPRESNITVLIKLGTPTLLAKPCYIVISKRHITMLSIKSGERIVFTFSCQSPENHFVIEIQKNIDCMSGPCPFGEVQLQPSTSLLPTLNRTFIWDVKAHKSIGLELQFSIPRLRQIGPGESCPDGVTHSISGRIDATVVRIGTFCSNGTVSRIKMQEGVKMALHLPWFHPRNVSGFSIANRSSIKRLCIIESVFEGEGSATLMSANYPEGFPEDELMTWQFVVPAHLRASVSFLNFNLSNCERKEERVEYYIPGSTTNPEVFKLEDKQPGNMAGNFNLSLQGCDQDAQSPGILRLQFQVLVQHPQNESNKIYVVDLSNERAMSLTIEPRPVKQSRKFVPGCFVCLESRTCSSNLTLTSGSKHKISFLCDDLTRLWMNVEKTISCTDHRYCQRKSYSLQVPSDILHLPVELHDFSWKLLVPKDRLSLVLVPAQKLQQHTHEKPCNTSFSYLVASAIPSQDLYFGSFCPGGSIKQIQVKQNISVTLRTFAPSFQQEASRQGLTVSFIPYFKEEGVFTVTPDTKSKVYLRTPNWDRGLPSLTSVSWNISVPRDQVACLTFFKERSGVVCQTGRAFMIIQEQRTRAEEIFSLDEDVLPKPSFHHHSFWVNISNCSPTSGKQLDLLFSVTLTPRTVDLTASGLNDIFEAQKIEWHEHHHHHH

T2: 生物素化的CD318蛋白 (human, UniProt Q9H5V8 30-667, biotin on the avi-tag)
T2 construct: Used 1:200 to stain CAR-T cells; also called 生物素-标记的CD318抗原; biotinylated recombinant human CD318-avi-his
T2 sequence: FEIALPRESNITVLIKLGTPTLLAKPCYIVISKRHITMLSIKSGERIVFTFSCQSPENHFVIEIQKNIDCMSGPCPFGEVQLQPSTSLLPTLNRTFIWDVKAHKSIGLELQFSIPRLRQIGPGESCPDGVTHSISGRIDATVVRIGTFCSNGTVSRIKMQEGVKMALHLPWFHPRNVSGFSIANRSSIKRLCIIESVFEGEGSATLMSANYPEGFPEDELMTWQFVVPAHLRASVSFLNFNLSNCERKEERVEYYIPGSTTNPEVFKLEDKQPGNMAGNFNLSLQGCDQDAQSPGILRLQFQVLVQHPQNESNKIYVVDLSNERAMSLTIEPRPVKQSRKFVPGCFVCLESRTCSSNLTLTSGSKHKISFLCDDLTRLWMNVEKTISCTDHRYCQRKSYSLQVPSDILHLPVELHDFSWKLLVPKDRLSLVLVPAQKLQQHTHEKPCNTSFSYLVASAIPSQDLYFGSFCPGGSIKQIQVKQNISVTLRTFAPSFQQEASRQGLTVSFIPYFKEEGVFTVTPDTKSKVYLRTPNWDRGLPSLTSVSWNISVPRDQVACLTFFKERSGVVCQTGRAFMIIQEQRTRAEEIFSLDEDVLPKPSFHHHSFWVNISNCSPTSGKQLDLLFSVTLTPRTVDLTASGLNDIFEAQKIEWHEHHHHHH


biological target: T1, 重组人CD318-avi-his抗原蛋白; assay: ELISA, coated recombinant human CD318, periplasmic extract, anti-HA HRP

| Binder | binding result |
| --- | --- |
| 4G2 (VHH, Tested as a periplasmic extract from TG1 (pcomb3X phagemid) and detected with anti-HA HRP; also called CD318 VHH 4G2) VHH: QVQLVESGGGLVQAGGSLRLSCAAFGNKYDFNTMGWYRQGPGKQRELVATIAAGGRTNYADSAKGRFTISRDNAKNTVYLQMNSLKPEDTAVYYCSAERVKNHYADYALDDYWGQGIQVTVSS | binds |
| 4A4 (VHH, Tested as a periplasmic extract from TG1 (pcomb3X phagemid) and detected with anti-HA HRP; also called CD318 VHH 4A4) VHH: QVQLVESGGGLVQAGGSLRLSCAASGSIFSGSAMGWYRQAPGKQRELVVVESSGGSTNYADSVKGRFTISRDNAKNTVYLQMNSLKPEDTAVYYCRGFYYGMGYWGKGTQVTVSS | binds |
| 4B7 (VHH, Tested as a periplasmic extract from TG1 (pcomb3X phagemid) and detected with anti-HA HRP; also called CD318 VHH 4B7) VHH: EVQLVETGGGLVQPGGSLRLSCAASGFTLDYYAIGWFRQAPGKEREGVSCITSSDDNTYYADSVKGRFTISRDNAKNTVYLQMNSLKPEDTAVYYCATDALSIRRSSCQLGPTAYFGMDYWGKGTLVTVSS | binds |
| 4A10 (VHH, Tested as a periplasmic extract from TG1 (pcomb3X phagemid) and detected with anti-HA HRP; also called CD318 VHH 4A10) VHH: EVQVVESGGGLVQAGGSLRLSCVASGSNDSMTAMGWYRQAPGKQREMVAVSTSTGTAIYGDSMKGRFTIARDNAKNTVYLQMNSLNFEDTAVYYCRNFIRGRDYWGQGTQVTVSS | binds |
| 4B2 (VHH, Tested as a periplasmic extract from TG1 (pcomb3X phagemid) and detected with anti-HA HRP; also called CD318 VHH 4B2) VHH: EVQVVESGGGLVQAGGSLRLSCVASGSSDSMNAMGWYRQAPGKQRETVAVSTSVGTAIYGDSVKGRFTISRDNAKNTVYLQMNSLNFEDTAVYYCRIFSRGRDYWGQGTQVTVSS | binds |
| 4A8 (VHH, Tested as a periplasmic extract from TG1 (pcomb3X phagemid) and detected with anti-HA HRP; also called CD318 VHH 4A8) VHH: EVQLVESGGGLVQPGGSLRLSCAASGFTSDYYAIGWFRQAPGKEREGVSCINNSDGSTYYADSVKGRFTISRDNAKNTVYLQMNSLKPEDTAVYYCAADDDVVAGFSCASYRYLELWGQGTLVTVSS | binds |

biological target: T2, 生物素化的CD318蛋白; assay: flow cytometry, CAR-T cells stained with biotinylated CD318 antigen and PE-streptavidin

| Binder | binding result |
| --- | --- |
| 4A10-BBz (other, Chimeric antigen receptor: CD8 signal peptide, VHH, CD8a hinge, CD8a transmembrane, 4-1BB, CD3zeta; also called 4A10 CD318 CAR) EVQVVESGGGLVQAGGSLRLSCVASGSNDSMTAMGWYRQAPGKQREMVAVSTSTGTAIYGDSMKGRFTIARDNAKNTVYLQMNSLNFEDTAVYYCRNFIRGRDYWGQGTQVTVSSTTTPAPRPPTPAPTIASQPLSLRPEACRPAAGGAVHTRGLDFACDIYIWAPLAGTCGVLLLSLVITLYCRFSVVKRGRKKLLYIFKQPFMRPVQTTQEEDGCSCRFPEEEEGGCELRVKFSRSADAPAYQQGQNQLYNELNLGRREEYDVLDKRRGRDPEMGGKPRRKNPQEGLYNELQKDKMAEAYSEIGMKGERRRGKGHDGLYQGLSTATKDTYDALHMQALPPR | binds |
| 4A8-BBz (other, Chimeric antigen receptor: CD8 signal peptide, VHH, CD8a hinge, CD8a transmembrane, 4-1BB, CD3zeta; also called 4A8 CD318 CAR) EVQLVESGGGLVQPGGSLRLSCAASGFTSDYYAIGWFRQAPGKEREGVSCINNSDGSTYYADSVKGRFTISRDNAKNTVYLQMNSLKPEDTAVYYCAADDDVVAGFSCASYRYLELWGQGTLVTVSSTTTPAPRPPTPAPTIASQPLSLRPEACRPAAGGAVHTRGLDFACDIYIWAPLAGTCGVLLLSLVITLYCRFSVVKRGRKKLLYIFKQPFMRPVQTTQEEDGCSCRFPEEEEGGCELRVKFSRSADAPAYQQGQNQLYNELNLGRREEYDVLDKRRGRDPEMGGKPRRKNPQEGLYNELQKDKMAEAYSEIGMKGERRRGKGHDGLYQGLSTATKDTYDALHMQALPPR | binds |
